B1: VH:VL chains; a variant is named by its letters at X, in order (parent)
chain 1: QVQLVQSGAEVKKPGASVKVSCKASGYTFTDYXMHWVRQAPGQGLEWMGXVNPNXXXTTYNQKFEGRVTMTTDTSTSTAYMELRSLRSDDTAVYYCARXNXLDXWGQGTTVTVSS
chain 2: DIQMTQSPSSLSASVGDRVTITCSVSSSVSSIYLHWYQQKPGKAPKLLIYSTSNLASGVPSRFSGSGSGTDFTLTISSLQPEDFATYYCQVYSGYPLTFGGGTKVEIK

Variants of: B1
Experiment: yeast display scFab, FACS + sequencing
Method in brief: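 Heavy-chain CDR mutant scFab yeast surface library, FACS-sorted after labelling with biotinylated ovalbumin (260 μg/mL in PBSB, 3 h, room temperature) or soluble membrane proteins (130 μg/mL, 20 min on ice), plus anti-Myc. Gates collected the top 25% and bottom 10% of binders, and samples from two replicates were deep sequenced. Non-specific binding call: a sequence was positive if found in ≥3 of 4 positive samples (membrane protein and ovalbumin pooled) and no negatives, and negative by the converse rule.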
In the case of YRGGTFGF, the non-specific binding call is reported as “binds”. For FRGGGSLD, the non-specific binding call was “binds”. For YRGKAAGV, the non-specific binding call was “binds”. For YRGKAAGD, the non-specific binding call was “binds”. For DRGGDDGS, the non-specific binding call was “no binding”. For DRGKNDGD, the non-specific binding call was “no binding”. With VRGRDDSA the non-specific binding call was “no binding”. In the case of YRGGTSVD, the non-specific binding call is reported as “binds”. With YRGRDDGD the non-specific binding call was “no binding”. With VRGGGSAA the non-specific binding call was “binds”. In the case of YRGGGDVS, the non-specific binding call is reported as “binds”. For SRGGSALA, the non-specific binding call was “no binding”. In the case of YRGKSDGS, the non-specific binding call is reported as “binds”. With VRGGSDVA the non-specific binding call was “no binding”. For VRGGSDVD, the non-specific binding call was “no binding”. For YRGKSSWA, the non-specific binding call was “binds”. In the case of DRGRDAWS, the non-specific binding call is reported as “no binding”. In the case of DRGRDAWF, the non-specific binding call is reported as “no binding”. In the case of SRGGGALD, the non-specific binding call is reported as “no binding”. With ARGKASSY the non-specific binding call was “no binding”. With FRGGDSAD the non-specific binding call was “binds”. With DRGRDDGS the non-specific binding call was “no binding”. With YRGGGSAA the non-specific binding call was “binds”. In the case of YRGGASAA, the non-specific binding call is reported as “binds”. In the case of YRGGDYLV, the non-specific binding call is reported as “no binding”. For VRGKDSLD, the non-specific binding call was “no binding”. For YRGKGSAD, the non-specific binding call was “binds”. In the case of YRGKGSAA, the non-specific binding call is reported as “binds”. With YRGKGSAV the non-specific binding call was “binds”. For YRGKGAWA, the non-specific binding call was “binds”. For YRGKGAWY, the non-specific binding call was “binds”. For YRGKGAWS, the non-specific binding call was “binds”. For YRGKGSWA, the non-specific binding call was “binds”. With YRGKGSWS the non-specific binding call was “binds”. With VRGKGAVD the non-specific binding call was “binds”. For DRGGDDLV, the non-specific binding call was “no binding”. In the case of YRGGGAAF, the non-specific binding call is reported as “binds”. With SRGGGVGY the non-specific binding call was “binds”. With FRGRDAVD the non-specific binding call was “binds”. With FRGRDAVF the non-specific binding call was “binds”. For FRGGGDWD, the non-specific binding call was “no binding”. For FRGRDDWA, the non-specific binding call was “no binding”. In the case of YRGKASWD, the non-specific binding call is reported as “binds”. With FRGGGSGF the non-specific binding call was “binds”. With FRGGGSGV the non-specific binding call was “binds”. For FRGGGSGS, the non-specific binding call was “binds”. In the case of YRGRASVV, the non-specific binding call is reported as “binds”. In the case of YRGKGYVV, the non-specific binding call is reported as “binds”. For ARGKGSGD, the non-specific binding call was “binds”. In the case of YRGKSALA, the non-specific binding call is reported as “binds”. For FRGKADVD, the non-specific binding call was “binds”. For FRGGSAGD, the non-specific binding call was “binds”. With VRGKAFVV the non-specific binding call was “binds”. For FRGGGFVV, the non-specific binding call was “binds”. For FRGGGSSA, the non-specific binding call was “binds”. With SRGGAAWA the non-specific binding call was “binds”. With FRGGGAVA the non-specific binding call was “binds”. With FRGGGAVS the non-specific binding call was “binds”. In the case of SRGKGALD, the non-specific binding call is reported as “binds”. With FRGGSVGY the non-specific binding call was “binds”. For YRGKDAAY, the non-specific binding call was “binds”. In the case of VRGGGAWV, the non-specific binding call is reported as “binds”. In the case of DRGRDDLV, the non-specific binding call is reported as “no binding”. With VRGRAAGD the non-specific binding call was “no binding”. For SRGKGSGV, the non-specific binding call was “binds”. In the case of YRGKDSGA, the non-specific binding call is reported as “binds”. For YRGKDSGS, the non-specific binding call was “binds”. In the case of YRGKGSGS, the non-specific binding call is reported as “binds”. For YRGKGSGF, the non-specific binding call was “binds”. For YRGGDSAS, the non-specific binding call was “no binding”. In the case of YRGGDSAY, the non-specific binding call is reported as “no binding”. In the case of VRGKGDWV, the non-specific binding call is reported as “no binding”. For YRGKSSVD, the non-specific binding call was “binds”. In the case of FRGRASAD, the non-specific binding call is reported as “binds”. With YRGRDAGF the non-specific binding call was “binds”. In the case of FRGGGSAA, the non-specific binding call is reported as “binds”. For YRGGDDLV, the non-specific binding call was “no binding”. In the case of YRGGDDLY, the non-specific binding call is reported as “no binding”. With FRGKGASS the non-specific binding call was “binds”. For FRGKGASV, the non-specific binding call was “binds”. In the case of FRGKGASD, the non-specific binding call is reported as “binds”. In the case of DRGGDAVV, the non-specific binding call is reported as “no binding”. With DRGGDAVA the non-specific binding call was “no binding”. In the case of FRGRASLS, the non-specific binding call is reported as “binds”. With FRGKGSGA the non-specific binding call was “binds”. For FRGKGSGD, the non-specific binding call was “binds”. In the case of FRGKGSGF, the non-specific binding call is reported as “binds”. With FRGKGSGV the non-specific binding call was “binds”. With YRGRDDLA the non-specific binding call was “no binding”. For YRGGGVVD, the non-specific binding call was “binds”. For YRGGDAAF, the non-specific binding call was “no binding”. In the case of SRGRDAWA, the non-specific binding call is reported as “binds”. In the case of VRGGSDGY, the non-specific binding call is reported as “no binding”. For VRGRDDGV, the non-specific binding call was “no binding”. With YRGKDSVD the non-specific binding call was “binds”. With YRGRDALV the non-specific binding call was “binds”. With VRGRDAVS the non-specific binding call was “binds”. For VRGGGDWV, the non-specific binding call was “no binding”. With YRGKGSLA the non-specific binding call was “binds”. With YRGKGAGY the non-specific binding call was “binds”. For YRGKGAGF, the non-specific binding call was “binds”. In the case of VRGKGSSS, the non-specific binding call is reported as “binds”. For VRGKGSSD, the non-specific binding call was “no binding”. In the case of YRGRASLY, the non-specific binding call is reported as “binds”. With FRGKGSAD the non-specific binding call was “binds”. For FRGKGSAV, the non-specific binding call was “binds”. For YRGGSDGS, the non-specific binding call was “no binding”. With YRGGDSSY the non-specific binding call was “no binding”. In the case of YRGRAAVS, the non-specific binding call is reported as “binds”. For VRGGDDWF, the non-specific binding call was “no binding”. For VRGGDDWA, the non-specific binding call was “no binding”. For YRGKDALA, the non-specific binding call was “binds”. For YRGKGAAF, the non-specific binding call was “binds”. For YRGKGAAS, the non-specific binding call was “binds”. For FRGKGSLA, the non-specific binding call was “binds”. In the case of VRGRDDVV, the non-specific binding call is reported as “no binding”. In the case of DRGRDDVA, the non-specific binding call is reported as “no binding”. In the case of DRGRDDVF, the non-specific binding call is reported as “no binding”. For DRGRDDVV, the non-specific binding call was “no binding”. With DRGRDDVD the non-specific binding call was “no binding”. In the case of DRGGGDAS, the non-specific binding call is reported as “no binding”.
